{"source": "patent US20140348865A1", "about": "“[…] ON AN HIV-1 V1V2 SITE-OF-VULNERABILITY” (The United States of America, as represented by the …, priority 2011, published 2014)", "key": {"monomeric gp120": {"molecular_target": "monomeric gp120", "experiment": "FIG. 11; method not given"}, "1FD6-ZM109 V1V2 scaffold [1]": {"molecular_target": "1FD6-ZM109 V1V2 scaffold"}, "[2]": {"molecular_target": "linked dimer of the gp120 V1/V2 domain with truncated V1 and V2 variable loops"}, "Linked-Dimer ZM109": {"molecular_target": "Linked-Dimer ZM109", "experiment": "SPR"}, "Linked-Dimer Cap45": {"molecular_target": "Linked-Dimer Cap45", "experiment": "SPR, sensorgram box labelled PG9 Fab"}, "1FD6-ZM109 V1V2 scaffold [3]": {"molecular_target": "1FD6-ZM109 V1V2 scaffold", "experiment": "SPR, scaffold immobilized, PG9 Fab injected"}, "1JO8-ZM109 V1V2 scaffold [4]": {"molecular_target": "1JO8-ZM109 V1V2 scaffold", "experiment": "SPR, scaffold immobilized, PG9 Fab injected"}, "[5]": {"molecular_target": "V3 loop-deleted gp120 of HIV-1 strain 16055 (HIV-1)", "experiment": "SPR, gp120 amine-coupled, Fab injected"}, "[6]": {"molecular_target": "V3 loop-deleted gp120 of HIV-1 strain AD244 (HIV-1)", "experiment": "SPR, gp120 amine-coupled, Fab injected"}, "[7]": {"molecular_target": "gp120 of HIV-1 strain 16055, full length (HIV-1)", "experiment": "SPR, gp120 amine-coupled, Fab injected"}, "[8]": {"molecular_target": "gp120 of HIV-1 strain AD244, full length (HIV-1)", "experiment": "SPR, gp120 amine-coupled, Fab injected"}, "Linked-Dimer A244": {"molecular_target": "Linked-Dimer A244", "experiment": "SPR, sensorgram box labelled Flowcell 2: PG9 Fab"}, "1JO8-ZM109 V1V2 scaffold [9]": {"molecular_target": "1JO8-ZM109 V1V2 scaffold", "experiment": "SPR, antigen amine-coupled, Fab injected, 1:1 Langmuir"}, "[10]": {"molecular_target": "gp120 of HIV-1 strain ZM109 (HIV-1)", "experiment": "SPR, antigen amine-coupled, Fab injected, 1:1 Langmuir"}, "[11]": {"molecular_target": "CAP45 154-177 glycopeptide with Man5GlcNAc2 at N160 and a complex glycan at N156", "experiment": "SPR, Fab injected over biotinylated glycopeptide on a streptavidin chip"}, "[12]": {"molecular_target": "CAP45 154-177 glycopeptide with Man5GlcNAc2 at N160 only", "experiment": "SPR, Fab injected over biotinylated glycopeptide on a streptavidin chip"}, "[13]": {"molecular_target": "Cap45 154-177 glycopeptide with Man5GlcNAc2 at N156 and Man5GlcNAc2 at N160", "experiment": "SPR, Fab injected over biotinylated glycopeptide on a streptavidin chip"}, "[14]": {"molecular_target": "ZM109 154-177 glycopeptide with Man5GlcNAc2 at N160 and Man5GlcNAc2 at N173", "experiment": "SPR, Fab injected over biotinylated glycopeptide on a streptavidin chip"}, "[15]": {"molecular_target": "ZM109 154-177 glycopeptide with Man5GlcNAc2 at N160 and a complex glycan at N173", "experiment": "SPR, Fab injected over biotinylated glycopeptide on a streptavidin chip"}, "[16]": {"molecular_target": "ZM109 154-177 glycopeptide with Man5GlcNAc2 at N160 only", "experiment": "SPR, Fab injected over biotinylated glycopeptide on a streptavidin chip"}, "[17]": {"molecular_target": "V3 loop-deleted gp120 of HIV-1 strain 16055 (HIV-1)", "experiment": "SPR, heterogeneous ligand model, component 1, 46.9%"}, "[18]": {"molecular_target": "gp120 of HIV-1 strain 16055, full length (HIV-1)", "experiment": "SPR, heterogeneous ligand model, component 1, 66.0%"}, "[19]": {"molecular_target": "V3 loop-deleted gp120 of HIV-1 strain AD244 (HIV-1)", "experiment": "SPR, heterogeneous ligand model, component 1, 84.5%"}, "[20]": {"molecular_target": "V3 loop-deleted gp120 of HIV-1 strain AD244 (HIV-1)", "experiment": "SPR, heterogeneous ligand model, component 2, 15.5%"}, "[21]": {"molecular_target": "gp120 of HIV-1 strain 16055, full length (HIV-1)", "experiment": "SPR, heterogeneous ligand model, component 2, 34.0%"}, "[22]": {"molecular_target": "V3 loop-deleted gp120 of HIV-1 strain 16055 (HIV-1)", "experiment": "SPR, heterogeneous ligand model, component 2, 53.1%"}}, "note": "“And” between values parts separate entries of the source, which are not always exact repeats. Equal values may be shown once."}
{"substance": "Hypersulfated PG9 Fab (co-expressed with TPST-1)", "values": [{"measurement": "fold increase of affinity by sulfation", "setting": "monomeric gp120", "value": 10, "unit": "fold"}]}
{"substance": "PG9 Fab", "values": [{"measurement": "Kd", "setting": "1FD6-ZM109 V1V2 scaffold [1]", "value": "3980 nM and 5670 nM"}, {"measurement": "Kd", "setting": "[2]", "value": 1700, "unit": "nM"}, {"measurement": "Kd", "setting": "Linked-Dimer ZM109", "value": 1610, "unit": "nM"}, {"measurement": "Kd", "setting": "Linked-Dimer Cap45", "value": 590, "unit": "nM"}, {"measurement": "fold lower affinity than for wild-type ZM109 gp120", "setting": "1FD6-ZM109 V1V2 scaffold [3]", "value": 50, "unit": "fold"}, {"measurement": "fold lower affinity than for wild-type ZM109 gp120", "setting": "1JO8-ZM109 V1V2 scaffold [4]", "value": 3, "unit": "fold"}, {"measurement": "Kd", "setting": "[5]", "value": 70.9, "unit": "nM"}, {"measurement": "Kd", "setting": "[6]", "value": 102, "unit": "nM"}, {"measurement": "Kd", "setting": "[7]", "value": 49, "unit": "nM"}, {"measurement": "Kd", "setting": "[8]", "value": 44, "unit": "nM"}, {"measurement": "Kd", "setting": "Linked-Dimer A244", "value": 1800, "unit": "nM"}, {"measurement": "Kd", "setting": "1JO8-ZM109 V1V2 scaffold [9]", "value": 318, "unit": "nM"}, {"measurement": "koff", "setting": "1JO8-ZM109 V1V2 scaffold [9]", "value": 0.00253, "unit": "s⁻¹"}, {"measurement": "kon", "setting": "1JO8-ZM109 V1V2 scaffold [9]", "value": 7960, "unit": "M⁻¹ s⁻¹"}, {"measurement": "Kd", "setting": "[10]", "value": 96.8, "unit": "nM"}, {"measurement": "koff", "setting": "[10]", "value": 0.00285, "unit": "s⁻¹"}, {"measurement": "kon", "setting": "[10]", "value": 29500, "unit": "M⁻¹ s⁻¹"}, {"measurement": "Kd", "setting": "[11]", "value": 5700, "unit": "nM"}, {"measurement": "Kd", "setting": "[12]", "value": 50000, "unit": "nM"}, {"measurement": "Kd", "setting": "[13]", "value": 45000, "unit": "nM"}, {"measurement": "Kd", "setting": "[14]", "value": 97000, "unit": "nM"}, {"measurement": "Kd", "setting": "[15]", "value": 5000, "unit": "nM"}, {"measurement": "Kd", "setting": "[16]", "value": 97000, "unit": "nM"}]}
{"substance": "PG16 Fab", "values": [{"measurement": "Kd", "setting": "[8]", "value": 4920, "unit": "nM"}, {"measurement": "Kd", "setting": "[17]", "value": 2070, "unit": "nM"}, {"measurement": "Kd", "setting": "[18]", "value": 370, "unit": "nM"}, {"measurement": "Kd", "setting": "[19]", "value": 3370, "unit": "nM"}, {"measurement": "Kd", "setting": "[20]", "value": 42.3, "unit": "nM"}, {"measurement": "Kd", "setting": "[21]", "value": 399, "unit": "nM"}, {"measurement": "Kd", "setting": "[22]", "value": 6130, "unit": "nM"}, {"measurement": "Kd", "setting": "[11]", "value": 32000, "unit": "nM"}, {"measurement": "Kd", "setting": "[15]", "value": 20000, "unit": "nM"}]}
